The record followed here is patent EP3016671B1, “ACTIVELY T[…] PROTEASE-RESISTANT PEPTIDES AS BBB SHUTTLES AND SHUTTLE-CARGO CONSTRUCTS” (Universitat de Barcelona, priority 2013, dated 2015).

Usually Papp stands for a coefficient for how fast a substance crosses the barrier. A high value points to ready permeation.

Positions of bridges follow the written chain, without caps; N, C: chain ends. Non-standard residues stand in square brackets, D forms with d. Residues, ends and D or L forms follow the SMILES beside them. *: point of attachment. X1 = CCN(CC)c1ccc2c(-c3ccc(S(=O)(=O)*)cc3S(=O)(=O)[O-])c3ccc(=[N+](CC)CC)cc-3oc2c1; Biotin = O=C1N[C@H]2[C@H](CS[C@H]2CCCCC(=O)*)N1; Dopa = N[C@@H](Cc1ccc(O)c(O)c1)C(=O)O

Data set [1] relates to bovine brain endothelial cells. The experiment in a line: Transport across the BBB, in vitro bovine cell assay (co-culture, transwell). The note with it: bovine cell model; for Transport (%) (2h) / Papp (x 10^6) cm/s: 37 °C, Ringer-HEPES pH 7.4, 200 µM (Example 21: 1.75 µM), 2 h; for Papp (x 10^6) cm/s: triplicate; for detection of the cargo alone in the acceptor compartments by MALDI-TOF MS: after the 2 h assay, cargo without shuttle. The source says:
(§1) The evaluation method chosen to test the compounds of formula (I) and (II) of the invention was a cell-based assay consisting of a co-culture of brain endothelial cells and astrocytes, which allows to evaluate or to predict the transport of compounds through the BBB. The co-culture method used was described by Gaillard and de Boer in 2008 (Gaillard, PJ et al. "2B-Trans technology: targeted drug delivery across the blood-brain barrier" Methods Mol Biol 2008, vol. 437 pp. 161-175) and consists in seeding of rat astrocytes in a side of a polycarbonate filter (transwell) and bovine brain endothelial cells on the other side of the filter. Under these conditions endothelial cells are able to reach the confluence mimicking the BBB. […] Is commonly used model for permeation studies and toxicity of compounds across the BBB.
(§2) The co-culture assay was used to determine the capacity of the constructs cargo-shuttle to cross the BBB. The apparent permeability of the compounds was measured in triplicate at a concentration of 200 µ M for Examples 1, 2, 3, 5, 10, 13, 15, 16, 17 and 19 and at a concentration of 1.75 µM for Example 21. All the assays were performed with transendothelial electrical resistance values equal or higher than 100 Ω · cm^2 and were carried out in the presence of lucifer yellow to assess the integrity of the cell membrane during the test. The permeability tests were performed in Ringer-HEPES buffer at pH 7.4. The compound of interest was dissolved in the buffer to the desired concentration.
(§3) Once the endothelial cells were confluent on the filters (transwells) these were washed with Ringer-HEPES buffer. The acceptor well was filled with 800 µ L of Ringer-HEPES buffer and the donor well with 200 µL of the solution of the compound to be studied. The system was incubated at 37 °C and 5% CO2 for 2 h. After that time the content of the acceptor and donor compartments were analyzed by HPLC-UV, direct ELISA or fluorescence (depending on cargo anchored to the shuttle). […] The apparent permeability was calculated using the following equation: Papp = (dQ/dt) * (1/A) * (1/CO) (cm/s), where (dQ/dt) is the amount of compound present in the compartment acceptor function of time (nmol/s). A is the area of the filter(cm2) and CO is the initial concentration of the compound applied in the donor compartment (nmol/mL).

Assay in data set [2]: as above
The conditions noted are these: pH 7.4; for Papp at 2 h: bovine.
Description: as §1, §2, §3

Consider “5(6)-Carboxyfluorescein-Cys-Asn-Cys-Lys-Ala-Pro-Glu-Thr-Ala-Leu-Cys-Ala-Ala-Ala-Cys-His-NH2 ({5(6)‑carboxyfluorescein}-CNCKAPETALCAAACH-NH2; disulfide 1-11, 3-15) [Example 10]”, for which, in data set [1], the “Transport (%) (2h)” value is 3.7±1.8% and the “Papp (x 10^6) cm/s” value was 3.1±1.5 (x 10^6) cm/s. Consider 5(6)-carboxyfluorescein, for which the “detection of the cargo alone in the acceptor compartments by MALDI-TOF MS” value (“detection of the cargo alone” below) in data set [1] is “not detected”.

Turning to `CCN(CC)c1ccc2c(-c3ccc(S(=O)(=O)NCC(=O)N[C@H]4CSSC[C@@H]5NC(=O)[C@H](CC(C)C)NC(=O)[C@H](C)NC(=O)[C@H]([C@@H](C)O)NC(=O)[C@H](CCC(=O)O)NC(=O)[C@@H]6CCCN6C(=O)[C@H](C)NC(=O)[C@H](CCCCN)NC(=O)[C@H](CSSC[C@@H](C(=O)N[C@@H](Cc6c[nH]cn6)C(N)=O)NC(=O)[C@H](C)NC(=O)[C@H](C)NC(=O)[C@H](C)NC5=O)NC(=O)[C@H](CC(N)=O)NC4=O)cc3S(=O)(=O)[O-])c3ccc(=[N+](CC)CC)cc-3oc2c1` [Example 13, sulforhodamine b-Gly-Cys-Asn-Cys-Lys-Ala-Pro-Glu-Thr-Ala-Leu-Cys-Ala-Ala-Ala-Cys-His-NH2] (X1-GCNCKAPETALCAAACH-NH2; disulfide 2-12, 4-16), the Papp in data set [2] was determined as 2 ± 0.3 ×10⁻⁶ cm/s. For the same molecule, the “Transport (%) (2h)” value in data set [1] was found to be 2.4±0.4%. In the case of `CC(C)C[C@@H]1NC(=O)[C@H](C)NC(=O)[C@H]([C@@H](C)O)NC(=O)[C@H](CCC(=O)O)NC(=O)[C@@H]2CCCN2C(=O)[C@H](C)NC(=O)[C@H](CCCCN)NC(=O)[C@@H]2CSSC[C@@H](C(=O)N[C@@H](Cc3c[nH]cn3)C(N)=O)NC(=O)[C@H](C)NC(=O)[C@H](C)NC(=O)[C@H](C)NC(=O)[C@H](CSSC[C@H](NC(=O)[C@@H](N)Cc3ccc(O)c(O)c3)C(=O)N[C@@H](CC(N)=O)C(=O)N2)NC1=O` [Example 16, L-Dopa-Cys-Asn-Cys-Lys-Ala-Pro-Glu-Thr-Ala-Leu-Cys-Ala-Ala-Ala-Cys-His-NH2] (H-[Dopa]CNCKAPETALCAAACH-NH2; disulfide 2-12, 4-16), the Papp at 2 h in data set [2] was found to be 2.6 ± 0.3 ×10⁻⁶ cm/s. In data set [1], the “Transport (%) (2h)” value came to 3.1±0.3%. Molecule `CC(C)C[C@@H]1NC(=O)[C@H](C)NC(=O)[C@H]([C@@H](C)O)NC(=O)[C@H](CCC(=O)O)NC(=O)[C@@H]2CCCN2C(=O)[C@H](C)NC(=O)[C@H](CCCCN)NC(=O)[C@@H](NC(=O)[C@@H](N)Cc2ccc(O)c(O)c2)CSSC[C@@H](C(N)=O)NC1=O` [Example 17, L-Dopa-Cys-Lys-Ala-Pro-Glu-Thr-Ala-Leu-Cys-NH2] (H-[Dopa]CKAPETALC-NH2; disulfide 2-10) showed an apparent permeability coefficient (Papp) at 2 h in data set [2] of 2.4 ×10⁻⁶ cm/s. For the same molecule, the “Transport (%) (2h)” value in data set [1] is recorded as 2.9%.

As for `N[C@@H](Cc1ccc(O)c(O)c1)C(=O)O` [L-dopa], the “detection of the cargo alone” value in data set [1] was “not detected”. `O=C(O)CCCC[C@@H]1SC[C@@H]2NC(=O)N[C@@H]21` [biotin]: the “detection of the cargo alone” value in data set [1] is given as “not detected”. In the case of `CCN(CC)c1ccc2c(-c3ccc(S(=O)(=O)O)cc3S(=O)(=O)[O-])c3ccc(=[N+](CC)CC)cc-3oc2c1` [sulforhodamine b], the “detection of the cargo alone” value in data set [1] was “not detected”. “Biotin-CNCKAPETALCAAACH-NH2 (cysteine pairing not given here) [Example 15]”: in data set [1], the “Transport (%) (2h)” value is reported as 1.9±0.8%. On to “H-LPFFD-NH2 [H-Leu-Pro-Phe-Phe-Asp-NH2, reference compound]”, for which the “detection of the cargo alone” value in data set [1] was “not detected”.

Turning to “Lysozyme-V3-Cys-Asn-Cys-Lys-Ala-Pro-Glu-Thr-Ala-Leu-Cys-Ala-Ala-Ala-Cys-His-NH2 [Example 21]”, in data set [1], the “Transport (%) (2h)” value is reported as 0.08±0.03% and the “Papp (x 10^6) cm/s” value is on record as 0.07±0.03 (x 10^6) cm/s.
